Measured values from paper PMC4231745.

Tests used:
[1] = target: His-MS2-MBP (MS2 coat protein fused to maltose binding protein) (bacteriophage MS2) (UniProt P03612); assay: SPR; conditions: kon/koff fit, HBS-EP+; SPR: HBS-EP+ running buffer, Biacore X100, binding temperature not given; gel cleavage: 500 uM MgCl2, 150 mM NaCl, 1 mM DTT, 10 mM HEPES pH 7.4, 37 C
[2] = target: His-MS2-MBP (MS2 coat protein fused to maltose binding protein) (bacteriophage MS2) (UniProt P03612); assay: ribozyme cleavage inhibition (gel); conditions: SPR: HBS-EP+ running buffer, Biacore X100, binding temperature not given; gel cleavage: 500 uM MgCl2, 150 mM NaCl, 1 mM DTT, 10 mM HEPES pH 7.4, 37 C

Sequence of UniProt P03612 (P03612 whole entry, the tested form may be a part): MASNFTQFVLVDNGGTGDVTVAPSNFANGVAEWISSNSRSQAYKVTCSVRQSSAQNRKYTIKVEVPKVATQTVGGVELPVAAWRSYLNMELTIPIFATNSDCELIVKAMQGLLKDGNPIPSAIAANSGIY

Sequence | Kd [1] [nM] | IC50 [2] [nM]
GCUGUCACCGGAUGUGCUGCAGGAUCACCGCAUUUCCGGUCUGAUGAGUCCGUGAGGACGAAACAGC [MS2-B1] | 630 | –
GCUGUCACCGGAUGUGCUUUCCGGUCUGAUGAGUCCGUUGUCCUAGGAUCACCAGGAAGGGACGGAGGACGAAACAGC [MS2-A7] | 279 | –
GCUGUCACCGGAUGUGCUUUCCGGUCUGAUGAGUCCGUUGUCCAGGAUCACCGGACGGGACGGAGGACGAAACAGC [MS2-A1] | 24.5 | 63
GCUGUCACCGGAUGUGCUUUCCGGUCUGAUGAGUCCGUGGUCCACCAUCAGGGGACUGGACUGAGGACGAAACAGC [MS2-A3] | 253 | –
GCUGUCACCGGAAUCAAGGUCCGGUCUGAUGAGUCCGACCAUCAGGAGGACGAAACAGC [MS2-B3] | 296 | –
GCUGUCACCGGAUGUGCUUUCCGGUCUGAUGAGUCCGUUGCGUAGGAUCACCACGUGGCGCGGAGGACGAAACAGC [MS2-A8] | 50 | –
GCUGUCACCGGAUUCGGGAUCCGGUCUGAUGAGUCCGACCAUCAGGAGGACGAAACAGC [MS2-B4] | 224 | –
GCUGUCACCGGAAUCAAGGUCCGGUCUGAUGAGUCCGUUGUCCACCAUCAGGGGACGGGACGGAGGACGAAACAGC [MS2-A2] | 6.08 | 19
GCUGUCACCGGAUGUGGUUUCCGGUCUGAUGAGUCCGACCAUCAGGAGGACGAAACAGC [MS2-B2] | 237 | –
